Here are results for one molecule from publication PMC10611554, “AcbHLH144 transcription factor negatively regulates phenolic biosynthesis to modulate pineapple internal browning”.

The target in the series is T1, GST-AcbHLH144 (pineapple, UniProt A0A6P5FRB5 1-240).
T1 sequence: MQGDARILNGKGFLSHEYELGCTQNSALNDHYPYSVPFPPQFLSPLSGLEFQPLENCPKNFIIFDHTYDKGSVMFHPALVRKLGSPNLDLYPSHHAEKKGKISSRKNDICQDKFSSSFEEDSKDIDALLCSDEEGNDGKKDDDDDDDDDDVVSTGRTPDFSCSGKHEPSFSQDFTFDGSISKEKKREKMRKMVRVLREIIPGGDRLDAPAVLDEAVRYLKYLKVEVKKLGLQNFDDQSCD
In words: EMSA; Chemiluminescent EMSA Kit (Beyotime); buffer, salt, pH and temperature not stated. Conditions: protein: recombinant; tags: N-terminal GST (pGEX-4T-1); chain copies: 2; label: biotin; blunt.

B1: Ac4CL5 promoter N-box probe (dsDNA)
DNA 1: CGGAGCACCTGCCCCTGCACGAGTACTGCTTCGAGCAGCT
DNA 2: AGCTGCTCGAAGCAGTACTCGTGCAGGGGCAGGTGCTCCG
On to B1, for which the binding result was “binds”.
